Data taken from patent publication US20190321455A1 (KOREA RESEARCH INSTITUTE OF BIOSCIENCE AND BIOTECHNOLOGY, published 2019).

Legend:
[1] = molecular target: T1, MAVS-FLAG (mitochondrial antiviral-signaling protein expressed in 293T cells) (UniProt Q7Z434 1-540); assay: anti-FLAG co-IP of 293T lysates expressing MAVS and forms of GST-PCBP2, anti-GST immunoblot
T1 construct: also called exogenous MAVS; not shown: FLAG tag

[2] = molecular target: T2, Strep-EPRS (Strep-tagged full-length glutamyl-prolyl-tRNA synthetase, wild type) (Homo sapiens (Human), UniProt P07814 1-1512); assay: Strep precipitation of 293T lysates expressing Strep-EPRS and forms of GST-PCBP2, anti-GST immunoblot
T2 construct: Expressed in HEK293T cells and pulled down with Strep-Tactin; Mass spectrometry found phospho-Ser886, and phospho-Ser990 after PR8 infection; also called Strep-EPRS WT; not shown: Strep tag

[3] = molecular target: T3, His-tagged EPRS (aa 1-196), purified from E. coli (Homo sapiens (Human), UniProt P07814 1-196); assay: in vitro His-tag (Ni-NTA) precipitation with purified proteins, Coomassie
T3 construct: also called GST and L1 regions of EPRS; not shown: hexahistidine tag
T3 sequence: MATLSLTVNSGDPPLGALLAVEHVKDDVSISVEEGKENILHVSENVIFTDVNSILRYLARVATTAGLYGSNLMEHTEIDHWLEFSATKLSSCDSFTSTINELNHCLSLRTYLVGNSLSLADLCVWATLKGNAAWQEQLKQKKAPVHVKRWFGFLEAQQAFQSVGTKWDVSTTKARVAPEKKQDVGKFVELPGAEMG

[4] = molecular target: T4, His-tagged EPRS (aa 1-168; GST-like domain alone), purified from E. coli (Homo sapiens (Human), UniProt P07814 1-168); assay: in vitro His-tag (Ni-NTA) precipitation with purified proteins
T4 construct: not shown: hexahistidine tag
T4 sequence: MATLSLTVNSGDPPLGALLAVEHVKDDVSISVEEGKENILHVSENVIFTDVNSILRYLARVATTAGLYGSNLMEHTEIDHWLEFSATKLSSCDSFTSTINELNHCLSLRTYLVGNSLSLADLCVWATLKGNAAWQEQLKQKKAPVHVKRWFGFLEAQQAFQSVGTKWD

[5] = molecular target: T5, MAVS, endogenous protein of RAW264.7 cells (UniProt Q8VCF0 1-503); assay: endogenous immunoprecipitation with anti-PCBP2 antibody, PR8-infected RAW264.7 cells
T5 sequence (looked up): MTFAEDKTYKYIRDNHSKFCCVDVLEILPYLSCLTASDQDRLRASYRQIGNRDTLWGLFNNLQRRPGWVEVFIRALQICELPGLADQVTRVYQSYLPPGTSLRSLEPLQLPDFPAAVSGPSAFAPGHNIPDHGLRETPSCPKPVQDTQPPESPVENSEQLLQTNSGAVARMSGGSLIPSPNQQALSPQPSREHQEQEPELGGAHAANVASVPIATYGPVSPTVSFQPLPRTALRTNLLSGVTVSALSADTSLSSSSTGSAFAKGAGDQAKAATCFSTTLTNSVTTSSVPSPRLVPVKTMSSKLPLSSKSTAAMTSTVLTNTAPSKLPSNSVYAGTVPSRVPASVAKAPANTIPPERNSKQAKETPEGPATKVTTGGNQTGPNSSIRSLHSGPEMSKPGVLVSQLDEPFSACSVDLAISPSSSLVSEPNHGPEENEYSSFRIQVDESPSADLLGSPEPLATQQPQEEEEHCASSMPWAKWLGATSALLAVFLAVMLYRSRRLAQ

[6] = molecular target: T6, EPRS, endogenous protein of RAW264.7 cells (UniProt Q8CGC7 1-1512, phospho-Ser990 induced by PR8 infection); assay: as above
T6 construct: Endogenous protein in cell lysates; The mouse origin is inferred from the cell line

[7] = molecular target: T7, EPRS, endogenous protein of U937 cells (human, UniProt P07814 1-1512, phospho-Ser990 induced by PR8 infection; phospho-Ser886 also detected); assay: endogenous co-IP with anti-EPRS antibody, PR8-infected U937 cells
T7 construct: Endogenous protein immunoprecipitated with anti-EPRS antibody; also called glutamyl-prolyl-tRNA synthetase

[8] = molecular target: T7, EPRS, endogenous protein of U937 cells; assay: endogenous co-IP with anti-EPRS antibody from PR8-infected U937 cells, anti-GAPDH immunoblot
[9] = molecular target: T2, Strep-EPRS (Strep-tagged full-length …); assay: Strep-EPRS complexes from PR8-infected 293T cells, mass spectrometry
[10] = molecular target: T8, Strep-tagged EPRS mono-phosphomimetic S990D (Homo sapiens (Human), UniProt P07814 1-1512); assay: Strep precipitation from 293T cells, immunoblot
T8 construct: Expressed in 293T cells; also called EPRS S990D; not shown: Strep tag

T1 sequence (Q7Z434 whole entry): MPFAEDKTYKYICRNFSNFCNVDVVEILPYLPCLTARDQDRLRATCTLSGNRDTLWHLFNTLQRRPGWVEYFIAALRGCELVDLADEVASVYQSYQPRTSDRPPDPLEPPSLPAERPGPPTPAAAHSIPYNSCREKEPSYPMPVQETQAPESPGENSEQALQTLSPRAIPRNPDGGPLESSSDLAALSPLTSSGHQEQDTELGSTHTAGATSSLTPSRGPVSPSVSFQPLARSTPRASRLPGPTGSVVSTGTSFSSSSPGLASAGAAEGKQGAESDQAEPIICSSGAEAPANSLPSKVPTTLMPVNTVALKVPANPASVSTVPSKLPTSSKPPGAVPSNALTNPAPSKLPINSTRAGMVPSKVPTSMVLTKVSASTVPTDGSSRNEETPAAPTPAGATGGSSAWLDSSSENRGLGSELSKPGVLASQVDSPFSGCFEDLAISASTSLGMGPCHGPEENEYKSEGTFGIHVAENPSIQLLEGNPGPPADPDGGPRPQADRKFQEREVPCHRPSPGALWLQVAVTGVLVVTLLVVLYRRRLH
T6 sequence (Q8CGC7 whole entry): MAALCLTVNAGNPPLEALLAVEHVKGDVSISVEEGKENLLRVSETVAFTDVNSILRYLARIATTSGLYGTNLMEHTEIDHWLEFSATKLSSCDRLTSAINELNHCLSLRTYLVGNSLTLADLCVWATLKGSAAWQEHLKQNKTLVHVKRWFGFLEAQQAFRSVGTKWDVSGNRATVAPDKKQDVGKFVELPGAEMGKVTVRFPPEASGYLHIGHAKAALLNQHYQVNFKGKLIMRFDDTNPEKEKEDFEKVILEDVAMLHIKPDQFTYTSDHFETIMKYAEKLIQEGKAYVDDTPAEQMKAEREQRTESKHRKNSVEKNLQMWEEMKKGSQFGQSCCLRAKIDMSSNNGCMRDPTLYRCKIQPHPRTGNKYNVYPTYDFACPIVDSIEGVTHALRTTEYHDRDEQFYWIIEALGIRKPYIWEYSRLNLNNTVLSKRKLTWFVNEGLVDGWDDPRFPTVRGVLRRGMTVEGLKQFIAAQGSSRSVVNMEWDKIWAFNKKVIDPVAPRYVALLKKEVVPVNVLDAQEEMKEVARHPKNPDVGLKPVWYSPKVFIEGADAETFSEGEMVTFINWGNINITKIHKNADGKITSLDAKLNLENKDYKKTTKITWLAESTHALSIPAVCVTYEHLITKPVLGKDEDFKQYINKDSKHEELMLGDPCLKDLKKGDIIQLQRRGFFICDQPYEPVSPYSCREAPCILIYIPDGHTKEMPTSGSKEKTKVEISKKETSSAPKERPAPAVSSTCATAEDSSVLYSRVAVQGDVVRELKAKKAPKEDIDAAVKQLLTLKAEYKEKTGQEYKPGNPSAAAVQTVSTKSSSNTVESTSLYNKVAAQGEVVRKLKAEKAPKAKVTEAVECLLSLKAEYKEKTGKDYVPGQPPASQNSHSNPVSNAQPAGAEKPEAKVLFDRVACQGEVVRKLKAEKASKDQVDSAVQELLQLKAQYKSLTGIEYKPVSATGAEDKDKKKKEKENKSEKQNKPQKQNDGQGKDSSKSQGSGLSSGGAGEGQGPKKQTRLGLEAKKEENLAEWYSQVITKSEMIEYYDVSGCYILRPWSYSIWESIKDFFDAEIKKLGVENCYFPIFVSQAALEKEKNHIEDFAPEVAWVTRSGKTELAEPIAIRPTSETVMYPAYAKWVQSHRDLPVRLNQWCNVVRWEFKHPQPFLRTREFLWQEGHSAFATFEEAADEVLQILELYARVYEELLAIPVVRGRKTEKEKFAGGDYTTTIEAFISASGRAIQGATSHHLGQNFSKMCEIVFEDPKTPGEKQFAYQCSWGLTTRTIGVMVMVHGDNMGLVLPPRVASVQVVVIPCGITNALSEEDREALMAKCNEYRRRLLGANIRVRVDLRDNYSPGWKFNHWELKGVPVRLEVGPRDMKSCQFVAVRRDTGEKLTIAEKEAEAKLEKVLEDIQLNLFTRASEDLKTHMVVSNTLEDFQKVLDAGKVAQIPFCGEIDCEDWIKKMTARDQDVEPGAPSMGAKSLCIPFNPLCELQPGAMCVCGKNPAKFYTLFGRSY

B1: GST-PCBP2 N-terminal KH1 domain (aa 1-81), expressed in 293T cells (other, UniProt Q15366 1-81, looked up)
chain: MDTGVIEGGLNVTLTIRLLMHGKEVGSIIGKKGESVKKMREESGARINISEGNCPERIITLAGPTNAIFKAFAMIIDKLEE
notes: range 1-81; also called PCBP2 KH1; not shown: GST tag
- binding result [1]: binds
- binding result [2]: binds

B2: GST-fused PCBP2 KH1 (aa 11-82), purified from E. coli (other, UniProt Q15366 11-82, looked up)
chain: NVTLTIRLLMHGKEVGSIIGKKGESVKKMREESGARINISEGNCPERIITLAGPTNAIFKAFAMIIDKLEED
notes: range 11-82; also called PCBP2 KH1 (aa 11-82) domain; not shown: GST
- binding result [3]: binds
- binding result [4]: no binding

B3: PCBP2, endogenous protein of RAW264.7 cells (other, UniProt Q61990 1-362, looked up)
chain: MDTGVIEGGLNVTLTIRLLMHGKEVGSIIGKKGESVKKMREESGARINISEGNCPERIITLAGPTNAIFKAFAMIIDKLEEDISSSMTNSTAASRPPVTLRLVVPASQCGSLIGKGGCKIKEIRESTGAQVQVAGDMLPNSTERAITIAGIPQSIIECVKQICVVMLESPPKGVTIPYRPKPSSSPVIFAGGQDRYSTGSDSASFPHTTPSMCLNPDLEGPPLEAYTIQGQYAIPQPDLTKLHQLAMQQSHFPMTHGNTGFSGIESSSPEVKGYWAGLDASAQTTSHELTIPNDLIGCIIGRQGAKINEIRQMSGAQIKIANPVEGSTDRQVTITGSAASISLAQYLINVRLSSETGGMGSS
notes: also called PBP2
- binding result [5]: binds
- binding result [6]: binds

B4: PCBP2, endogenous protein of human cells (293T, U937) (other, UniProt Q15366 1-365, looked up)
chain: MDTGVIEGGLNVTLTIRLLMHGKEVGSIIGKKGESVKKMREESGARINISEGNCPERIITLAGPTNAIFKAFAMIIDKLEEDISSSMTNSTAASRPPVTLRLVVPASQCGSLIGKGGCKIKEIRESTGAQVQVAGDMLPNSTERAITIAGIPQSIIECVKQICVVMLETLSQSPPKGVTIPYRPKPSSSPVIFAGGQDRYSTGSDSASFPHTTPSMCLNPDLEGPPLEAYTIQGQYAIPQPDLTKLHQLAMQQSHFPMTHGNTGFSGIESSSPEVKGYWGLDASAQTTSHELTIPNDLIGCIIGRQGAKINEIRQMSGAQIKIANPVEGSTDRQVTITGSAASISLAQYLINVRLSSETGGMGSS
notes: also called PBP2
- binding result [7]: binds

B5: GAPDH (glyceraldehyde-3-phosphate dehydrogenase), endogenous protein of human cells (U937, 293T) (enzyme)
chain: not shown
- binding result [8]: no binding
- binding result [9]: no binding

B6: GST-PCBP2 linker region, expressed in 293T cells (other, UniProt Q15366 168-279, looked up)
chain: ETLSQSPPKGVTIPYRPKPSSSPVIFAGGQDRYSTGSDSASFPHTTPSMCLNPDLEGPPLEAYTIQGQYAIPQPDLTKLHQLAMQQSHFPMTHGNTGFSGIESSSPEVKGYW
notes: domain: linker region; not shown: GST tag
- binding result [2]: no binding

B7: AIMP3 (ARS-interacting multifunctional protein 3), endogenous protein of human cells (U937, 293T) (other, UniProt O43324 2-174, looked up)
chain: AAAAELSLLEKSLGLSKGNKYSAQGERQIPVLQTNNGPSLTGLTTIAAHLVKQANKEYLLGSTAEEKAIVQQWLEYRVTQVDGHSSKNDIHTLLKDLNSYLEDKVYLTGYNFTLADILLYYGLHRFIVDLTVQEKEKYLNVSRWFCHIQHYPGIRQHLSSVVFIKNRLYTNSH
- binding result [10]: no binding

B8: MRS (methionyl-tRNA synthetase), endogenous protein of 293T cells (enzyme, UniProt P56192 1-900, looked up)
chain: MRLFVSDGVPGCLPVLAAAGRARGRAEVLISTVGPEDCVVPFLTRPKVPVLQLDSGNYLFSTSAICRYFFLLSGWEQDDLTNQWLEWEATELQPALSAALYYLVVQGKKGEDVLGSVRRALTHIDHSLSRQNCPFLAGETESLADIVLWGALYPLLQDPAYLPEELSALHSWFQTLSTQEPCQRAAETVLKQQGVLALRPYLQKQPQPSPAEGRAVTNEPEEEELATLSEEEIAMAVTAWEKGLESLPPLRPQQNPVLPVAGERNVLITSALPYVNNVPHLGNIIGCVLSADVFARYSRLRQWNTLYLCGTDEYGTATETKALEEGLTPQEICDKYHIIHADIYRWFNISFDIFGRTTTPQQTKITQDIFQQLLKRGFVLQDTVEQLRCEHCARFLADRFVEGVCPFCGYEEARGDQCDKCGKLINAVELKKPQCKVCRSCPVVQSSQHLFLDLPKLEKRLEEWLGRTLPGSDWTPNAQFITRSWLRDGLKPRCITRDLKWGTPVPLEGFEDKVFYVWFDATIGYLSITANYTDQWERWWKNPEQVDLYQFMAKDNVPFHSLVFPCSALGAEDNYTLVSHLIATEYLNYEDGKFSKSRGVGVFGDMAQDTGIPADIWRFYLLYIRPEGQDSAFSWTDLLLKNNSELLNNLGNFINRAGMFVSKFFGGYVPEMVLTPDDQRLLAHVTLELQHYHQLLEKVRIRDALRSILTISRHGNQYIQVNEPWKRIKGSEADRQRAGTVTGLAVNIAALLSVMLQPYMPTVSATIQAQLQLPPPACSILLTNFLCTLPAGHQIGTVSPLFQKLENDQIESLRQRFGGGQAKTSPKPAVVETVTTAKPQQIQALMDEVTKQGNIVRELKAQKADKNEVAAEVAKLLDLKKQLAVAEGKPPEAPKGKKKK
notes: 293T cells are a human line
- binding result [10]: no binding
